According to the supplement of paper PMC7125110:
± gives the standard error. This sample holds only a part of the variants without activity.

B1: glmS ribozyme (parent)
chain: AUAAAAGCGCCAGAACUACAGAAAUGUAGUUGACGAGGAGGAGGUUUAUCGAAUUUUCGGCGGAUGCCUCCAAA

Variants of: B1
Test: self-cleavage kobs at 2500 uM GlcN6P; higher = faster cleavage; RNA array
Settings: with glucosamine-6-phosphate
Procedure, shortened: (§1)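 Using a hybridised Cy3 probe at 37 °C, barcoded ribozyme variants transcribed in situ by E. coli RNA polymerase on sequenced MiSeq chips were monitored across tiles imaged over ~14 h. The flow contained glucosamine-6-phosphate from 40 μM to 10 mM in HEPES/KCl/Mg(OAc)2 buffer. Signals were normalised to baseline and to non-cleaving reference variants before per-tile medians were fit to one- or two-exponential decays to yield kobs. Weighted Michaelis–Menten fits across concentrations gave kcat and KM.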

Variant	self-cleavage kobs at 2500 uM GlcN6P
G7A A12G G35A	< 1e-05 s⁻¹
A6U A12U U55A	0.000377 ± 9.2e-05 s⁻¹
G29C U49G C61U	< 1e-05 s⁻¹
U56A U57C C67A	4.71e-05 ± 2e-05 s⁻¹
C11A U54C C58A G66C	< 1e-05 s⁻¹
C34A A36C G37U G51U	< 1e-05 s⁻¹
A6U G29U A36G G44A U55C	< 1e-05 s⁻¹
A36U U55C C58G	< 1e-05 s⁻¹
G29U U57A C68G	8.07e-05 ± 2.8e-05 s⁻¹
A39G G66A U69G	3.43e-05 ± 1.3e-05 s⁻¹
G40C A64U C68U	< 1e-05 s⁻¹
G32C A33C G37C A48C C71U	< 1e-05 s⁻¹
A12G A14U G66A	6.8e-05 ± 1.9e-05 s⁻¹
A39C G44C C67A	0.000176 ± 4.5e-05 s⁻¹
U31G G32U C58U	8.74e-05 ± 2.9e-05 s⁻¹
G7C G29U G35U	< 1e-05 s⁻¹
C10A G37A A53C	< 1e-05 s⁻¹
A42G A48U U56A	0.000146 ± 4.2e-05 s⁻¹
U57A G59U G66U	< 1e-05 s⁻¹
C11G U30C G40C	< 1e-05 s⁻¹
C11U G44C A52U G60C	< 1e-05 s⁻¹
G13C G35C G44U U56A C61U	< 1e-05 s⁻¹
A15U U45A U65G	0.00134 ± 0.00059 s⁻¹
G35U A42U U49A A53U	< 1e-05 s⁻¹
G13U G40A A42C U65G	< 1e-05 s⁻¹
A6U G35C U56A G60U A64G	< 1e-05 s⁻¹
C11A U54A U56A G59U	0.00154 ± 0.00068 s⁻¹

Variant	self-cleavage kobs at 2500 uM GlcN6P
C16U G43U U45G	0.00141 ± 0.00031 s⁻¹
U31C G37U U65A	< 1e-05 s⁻¹
G38U U54G C71A	< 1e-05 s⁻¹
C16A G59U A64U C67G	< 1e-05 s⁻¹
A12C A15G G43C	< 1e-05 s⁻¹
G41C A48C A64G	< 1e-05 s⁻¹
A33G G38U G44A C67G C71U	< 1e-05 s⁻¹
A14G C16G A64G U69G	5.19e-05 ± 2.3e-05 s⁻¹
A6U G35U G59U	< 1e-05 s⁻¹
G35C G41A G44A G66A	< 1e-05 s⁻¹
G29A G43C C68G	0.00377 ± 0.0014 s⁻¹
C10A A42G U55G C67U	< 1e-05 s⁻¹
A33U G35A U45G C50G C70A	< 1e-05 s⁻¹
G7A U31C A39G A52U	< 1e-05 s⁻¹
C10G C11G A36C G38C A53C G60U	< 1e-05 s⁻¹
G40U U47G U54C	0.00079 ± 0.00014 s⁻¹
C11G C61A G62C	< 1e-05 s⁻¹
A6U C16G C71G	0.000356 ± 0.00014 s⁻¹
C8A G59A C70U	< 1e-05 s⁻¹
C67A C68U C70U	2.78e-05 ± 1.3e-05 s⁻¹
G29C A42G C67G	0.000111 ± 5.1e-05 s⁻¹
U31G G38C U46C U65G	< 1e-05 s⁻¹
G9C A39C C67A	< 1e-05 s⁻¹
C8U C10G G38A	< 1e-05 s⁻¹
U47A A53G C70A	0.000177 ± 4e-05 s⁻¹
A14G G41U U69A	8.6e-05 ± 2e-05 s⁻¹
C16A A53U U55A	0.000149 ± 3.9e-05 s⁻¹

Variant	self-cleavage kobs at 2500 uM GlcN6P
C11U A12G A15U	0.000175 ± 4.8e-05 s⁻¹
G7U C11A A14C A15C A33C U46G A48G C61U C67A	< 1e-05 s⁻¹
G9C C11G C71U	< 1e-05 s⁻¹
A33C G60U G62C	< 1e-05 s⁻¹
U31A U46C	0.000756 ± 0.00018 s⁻¹
C16A A33C C71A	< 1e-05 s⁻¹
A33G U56C G60A	< 1e-05 s⁻¹
G41C G43C U47A A64G	< 1e-05 s⁻¹
A15G U55A G66C	0.000727 ± 0.00013 s⁻¹
C10U G13U A64C	< 1e-05 s⁻¹
U45G G60A C67G C68U	< 1e-05 s⁻¹
A14G A36G C58G	< 1e-05 s⁻¹
G32A G35A C61U C71U	< 1e-05 s⁻¹
G35A C50U	2.72e-05 ± 1.2e-05 s⁻¹
A36C U47G A52G G60C	< 1e-05 s⁻¹
A14U A52C A53G U55C U57G	< 1e-05 s⁻¹
G7A A64C C67G U69G	< 1e-05 s⁻¹
C8U G51U U57C	< 1e-05 s⁻¹
G7A U30G G32A A39G	< 1e-05 s⁻¹
G9A G44U G60A	< 1e-05 s⁻¹
G32U U55G C70U	0.000141 ± 5e-05 s⁻¹
C8A C50G U69G	0.000345 ± 7.5e-05 s⁻¹
C8G G35U A39C	< 1e-05 s⁻¹
C10G G35U U46G C68A	< 1e-05 s⁻¹
A33C U56G	5.24e-05 ± 2.2e-05 s⁻¹
A14U G29A G40U U45A C50G C71G	< 1e-05 s⁻¹

Variants of: B1
Test: self-cleavage kobs at 10000 uM GlcN6P; higher = faster cleavage; RNA array
Settings: with glucosamine-6-phosphate
Procedure, shortened: as §1

Variant	self-cleavage kobs at 10000 uM GlcN6P
G40C A64U C68U	< 1e-05 s⁻¹
A12C A15G G43C	< 1e-05 s⁻¹
C10A A42G U55G C67U	< 1e-05 s⁻¹
C67A C68U C70U	6.71e-05 ± 1.9e-05 s⁻¹
C11U A12G A15U	0.000193 ± 4.2e-05 s⁻¹
G35A C50U	4.87e-05 ± 8e-06 s⁻¹
A33C U56G	5.35e-05 ± 1e-05 s⁻¹
